Results published in US20120184713.

How the values were obtained:
[1] = biological target: T1, Peptide2, OPN-ASARM derivative with all five Ser residues replaced by Ala
T1 chain: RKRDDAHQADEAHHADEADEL

[2] = biological target: T2, DMP1:FLAG (FLAG epitope-tagged mouse dentin matrix protein 1, affinity purified), O55188
T2 chain: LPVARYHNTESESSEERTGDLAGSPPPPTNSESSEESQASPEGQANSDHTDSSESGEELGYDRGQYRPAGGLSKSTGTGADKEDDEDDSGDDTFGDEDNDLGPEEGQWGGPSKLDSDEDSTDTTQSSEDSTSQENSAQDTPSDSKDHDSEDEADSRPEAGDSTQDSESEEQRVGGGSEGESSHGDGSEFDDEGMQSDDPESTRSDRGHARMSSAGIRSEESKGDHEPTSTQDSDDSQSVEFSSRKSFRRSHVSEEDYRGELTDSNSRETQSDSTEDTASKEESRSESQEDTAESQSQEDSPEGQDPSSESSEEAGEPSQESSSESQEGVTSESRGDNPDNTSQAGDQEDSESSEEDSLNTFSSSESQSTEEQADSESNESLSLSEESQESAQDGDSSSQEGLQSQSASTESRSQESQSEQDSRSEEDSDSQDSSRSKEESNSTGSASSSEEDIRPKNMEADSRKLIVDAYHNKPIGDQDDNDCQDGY

[3] = biological target: T3, Fat2-3:FLAG (affinity-purified cadherin domains of Drosophila Fat), P33450
T3 chain: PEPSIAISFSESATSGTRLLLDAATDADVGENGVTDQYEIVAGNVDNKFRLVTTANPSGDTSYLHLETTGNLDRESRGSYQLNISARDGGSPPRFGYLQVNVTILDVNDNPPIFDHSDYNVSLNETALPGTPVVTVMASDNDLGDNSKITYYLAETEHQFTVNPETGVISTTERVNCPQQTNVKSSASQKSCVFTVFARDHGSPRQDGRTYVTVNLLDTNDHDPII

[4] = biological target: T4, Peptide3, OPN-ASARM derivative with the three G-CK consensus Ser residues changed to Ala
T4 chain: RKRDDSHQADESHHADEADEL

[5] = biological target: T5, Peptide4, OPN-ASARM derivative with the other two Ser residues changed to Ala
T5 chain: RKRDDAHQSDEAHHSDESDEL

[6] = biological target: T6, BSP:FLAG (FLAG epitope-tagged mouse bone sialoprotein, affinity purified), Q61711
T6 chain: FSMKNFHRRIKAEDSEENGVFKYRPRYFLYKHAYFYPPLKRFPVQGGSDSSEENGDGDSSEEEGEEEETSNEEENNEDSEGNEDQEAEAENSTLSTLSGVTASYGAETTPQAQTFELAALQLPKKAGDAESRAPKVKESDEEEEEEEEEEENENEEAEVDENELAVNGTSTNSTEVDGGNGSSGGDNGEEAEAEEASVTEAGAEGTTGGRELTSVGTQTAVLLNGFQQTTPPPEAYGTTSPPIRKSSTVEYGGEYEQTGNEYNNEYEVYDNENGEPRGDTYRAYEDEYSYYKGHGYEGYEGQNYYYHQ

[7] = biological target: T7, Peptide1, OPN-ASARM peptide (human Osteopontin 115Asp to 132Leu with N-terminal Arg-Lys-Arg)
T7 chain: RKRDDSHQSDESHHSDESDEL

[8] = biological target: OPN:FLAG (FLAG epitope-tagged mouse osteopontin, affinity purified), P10923
[9] = biological target: dephosphorylated alpha-Casein (Sigma)
[10] = biological target: Myelin Basic Protein (NEB)

OPN:FLAG (FLAG epitope-tagged mouse osteopontin, affinity purified), P10923, sequence (P10923 17-294): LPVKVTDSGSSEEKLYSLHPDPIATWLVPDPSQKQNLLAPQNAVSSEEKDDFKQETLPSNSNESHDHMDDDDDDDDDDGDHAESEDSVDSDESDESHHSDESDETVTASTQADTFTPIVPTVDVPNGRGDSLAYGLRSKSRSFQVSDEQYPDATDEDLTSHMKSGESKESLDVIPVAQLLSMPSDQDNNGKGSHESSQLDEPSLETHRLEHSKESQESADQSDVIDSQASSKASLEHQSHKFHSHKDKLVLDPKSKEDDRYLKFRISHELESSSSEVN

B1: FAM20C:V5 (V5-epitope tagged mouse FAM20C, affinity purified from conditioned medium of HEK293T cells) (protein)
chain: DFSSDPASNLTSHSLEKLPSAAEPVDHAPRGQEPRSPPPRDPAHRPLLRDPGPRPRVPPPGPSGDGSLLAKLFEHPLYQGAVPPLTEDDVLFNVNSDIRFNPKAAENPDWPHEGAEGAEFLPTGEAAVNLYPNWLKFHIGINRYELYSRHNPAIDALLRDLGSQKITSVAMKSGGTQLKLIMTFQNYGQALFKPMKQTREQETPPDFFYFSDYERHNAEIAAFHLDRILDFRRVPPVAGRMINMTKEIRDVTRDKKLWRTFFVSPANNICFYGECSYYCSTEHALCGRPDQIEGSLAAFLPDLSLAKRKTWRNPWRRSYHKRKKAEWEVDPDYCEEVKQTPPYDSGHRILDIMDMTVFDFLMGNMDRHHYETFEKFGNETFIIHLDNGRGFGKYSHDELSILAPLHQCCRIRRSTYLRLQLLAKEEHKLSLLMAESLQHDKVAPVLYQLHLEALDRRLRIVLQAVRDCVEKDGLSSVVEDDLATEHRASTER
Q: With B1 as the protein, how does the “in vitro kinase assay with peptide substrate” value [1] read?
A: a derivative with all five Ser residues replaced by Ala (OPN-ASARM^5S-A) was not phosphorylated

Q: And the “in vitro kinase assay (32P transfer)” value [2]?
A: Transfer of ^32P onto OPN, BSP, and DMP1 was observed in the presence of FAM20C:V5

Q: And the “in vitro kinase assay (32P transfer)” value [3]?
A: neither Myelin basic protein ... nor cadherin domains of Fat that are substrates for Fj, were detectably phosphorylated by FAM20C

Q: What about the “in vitro kinase assay with peptide substrate” value [4] of the same protein?
A: A peptide in which only the three G-CK concensus sites were changed to Ala (OPN-ASARM^3S-A) was phosphorylated much less effectively

Q: And the “in vitro kinase assay with peptide substrate” value [5]?
A: a derivative in which the other two Ser residues were changed to Ala (OPN-ASARM^2S-A) was still efficiently phosphorylated by FAM20C

Q: And the “in vitro kinase assay (32P transfer)” value [6]?
A: Transfer of ^32P onto OPN, BSP, and DMP1 was observed in the presence of FAM20C:V5

Q: What about the “in vitro kinase assay with peptide substrate” value [7] of the same protein?
A: In vitro kinase reactions confirmed that OPN-ASARM is a FAM20C substrate

Q: What about the “in vitro kinase assay (32P transfer)” value [8] of the same protein?
A: Transfer of ^32P onto OPN, BSP, and DMP1 was observed in the presence of FAM20C:V5

Q: And the “Michaelis constant (Km), in vitro kinase assay” value [9]?
A: a Michaelis constant (Km) of FAM20C for Casein of 1.5 µM

Q: What about the “in vitro kinase assay (32P transfer)” value [9] of the same protein?
A: Dephosphorylated Casein was phosphorylated by purified FAM20C in vitro

Q: And the “in vitro kinase assay (32P transfer)” value [10]?
A: neither Myelin basic protein ... nor cadherin domains of Fat ... were detectably phosphorylated by FAM20C
